Here are results for two molecules from patent publication US20250368752A1 (AMPSOURCE BIOPHARMA SHANGHAI, published 2025).

The target in experiment [1] is T1, human TFPI with a His tag (human, UniProt P10646 29-282, limits assumed).
T1 construct: Coupled to Ni-NTA sensors at 10 ug/mL for BLI; not shown: His tag
T1 sequence (looked up): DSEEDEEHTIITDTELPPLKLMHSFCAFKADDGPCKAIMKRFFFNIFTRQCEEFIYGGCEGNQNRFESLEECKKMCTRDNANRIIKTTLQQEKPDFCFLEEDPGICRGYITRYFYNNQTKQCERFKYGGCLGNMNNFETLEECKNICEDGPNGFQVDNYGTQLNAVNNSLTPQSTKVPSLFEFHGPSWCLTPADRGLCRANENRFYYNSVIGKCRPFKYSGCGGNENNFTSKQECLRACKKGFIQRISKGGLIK
Briefly: BLI (ForteBio Octet), His-tagged human TFPI on Ni-NTA sensors, antibody 3.125-100 nM. As for the experimental part: The binding affinity constant of the purified mouse monoclonal antibody against human TFPI (mAb3-71) to human TFPI was determined using biolayer interferometry (BLI) with the ForteBio Octet RED&QK system from PALL Corporation. The concentration gradient for multi-channel parallel quantitative analysis was set to 3.125, 6.25, 12.5, 25, 50, and 100 nM, and human TFPI with a His tag at 10 μg/mL was coupled to Ni-NTA sensors.
(In general: BLI is a label-free optical method that tracks binding on a fibre tip over time.)

The target in experiment [2] is TFPI expressed on HUVECs (human) (UniProt P10646). Briefly: cell-based or functional assay.
The target is the same in experiment [3]. Description: flow cytometry on HUVEC cells, AF647 goat anti-human IgG detection. In general terms: A flow cytometer gives signals particle by particle.
For experiment [4], the target named is T2, human TFPI protein (human, UniProt P10646 29-282, limits assumed).
T2 construct: Soluble human TFPI, coated on ELISA plates (6.1) and used in solution in the FXa and TF/FVIIa/FX assays (6.2, 6.3)
T2 sequence (looked up): T1 sequence (looked up)
Description: ELISA, human TFPI coated at 0.1 ug/mL, HRP goat anti-human IgG detection. As for the experimental part: Human TFPI was coated onto the ELISA plate at a concentration of 0.1 μg/mL, with 100 μL per well, and incubated overnight at 4° C. The coating solution was then discarded, and the wells were blocked with 200 μL of PBS solution containing 1% BSA (PBSB) per well at 37° C. for 1 hour. The plate was washed with PBS solution containing 0.05% Tween-20 (PBST). A series of diluted concentrations of AB8D were added, with 100 μL per well, and incubated for 1 hour at 37° C. The plates were washed with PBST, and then HRP-labeled goat anti-human IgG (H+L) (Jackson Laboratory) was added as the detection antibody, with incubation for 1 hour at 37° C. After washing three times with 0.05% PBST, TMB was added, with 100 μL per well, and the color was developed at room temperature for 5 minutes. The reaction was terminated by adding 0.2 M H₂SO₄, with 50 μL per well. The absorbance values were read at dual wavelengths of 450/620 nm using a microplate reader. Using OD450 nm-OD620 nm as the Y-axis and antibody concentration as the X-axis, the data were analyzed using GraphPad Prism 6 software with a four-parameter logistic curve fitting to calculate the EC₅₀ value.

As a reminder, the Kd is a measure of binding affinity in units of concentration. Broadly, the koff is the first-order rate constant of dissociation. High values mean fast dissociation, low ones slow dissociation. Broadly, the kon is the second-order rate constant of association. Lower therefore signals slower complex formation. In general, EC50 refers to the midpoint of the concentration-response curve.

B1: mouse monoclonal antibody against human TFPI, mAb3-71 (antibody, V domains shown)
VH: QVQLQQPEAELMKPGASVKLSCKASGYTFTSYWMHWVKQRPGQGLEWIGEIKPDNGRINYNEKFKTKATLAVDKSSSTAYMQLNSLTSGDSAVYYCARSSVVDVAMDYWGQGTSVSVSS
VL: QIVLTQSPAIMSASPGEKVTLTCSASSSVSSSYLYWYQQKPGSSPKLWISGTSILASGVPARFSGSGSGTSYSLTISSMEAEDTASYFCHQWSHYPFTFGSGTKLEIK
notes: also called hybridoma cell line #3-71
In experiment [1], B1 gave an equilibrium dissociation constant (Kd) of 4.54 pM, a koff of 1.31e-06 s⁻¹ and a kon of 289000 M⁻¹ s⁻¹.

B2: humanized anti-human TFPI antibody AB8D (antibody, V domains shown)
VH: EVQLVQSGAELKKPGASVKLSCKASGYTFTSYWMHWVRQTPGQGLEWIGEIKPDQGRINYNEKFKTRATLTADKSTSTAYMELSSLRSEDTAVYYCARSSVVDVAMDYWGQGTTVTVSS
VL: EIVLTQSPATLSLSPGERATLSCSASSSVSSSYLYWYQQKPGQAPRLWISGTSILASGVPARFSGSGSGTKYTLTISSLEPEDFAVYFCHQWSHYPFTFGQGTKLEIK
notes: Full-length humanized IgG of about 145 kD, expressed in CHO cells
Consider B2, for which the neutralization of TFPI on HUVEC cells (FVIIa/FX added, S-2765, OD405 nm) in experiment [2] worked out at 117 ng/mL. Moreover, the 50% effective concentration (EC50) in experiment [3] is 0.0286 µg/mL; in experiment [4] it was 0.00165 µg/mL.
